Results published in patent US20130295090A1.

Target: JEV strain SA14-14-2 envelope (E) protein on virions (Japanese encephalitis virus strain SA14-14-2), P0DOH7
Experiment: ELISA on JEV virions captured with HMAF, half-maximal binding, MAb
Details: remark: other sources report otherwise

B1: humanized MAb A3 (antibody)
VH: EVQLLESGAEVKKPGSSVRISCKVSGTPYSSYVMNWVRQAPGQGLEWMGVFVPSLDRALYAQNFQGRLSITADTTTTYMELTSLKFEDTAVYYCATDFSVGWLRPLDRWGQGTLVTVSSASTKGPSVFPLAPSSKSTSGGTAALGCLVKDYFPEPVTVSWNSGALTSGVHTFPAVLQSSGLYSLSSVVTVPSSSLGTQTYICNVDHKPSNTKVDKKVEPKSCDKTHTCPPCPAPPVEGGPSVFLFPPKPKDTLMISRTPEVTCVVVDVSHEDPEVKFNWYVDGVEVHNAKTKPREEQYNSTYRVVSVLTVLHQDWLNGKEYKCKVSNKALPAPIEKTISKAKGQPREPQVYTLPPSRDELTKNQVSLTCLVKGFYPSDIAVEWESNGQPENNYKTTPPVLDSDGSFFLYSKLTVDKSRWQQGNVFSCSVMHEALHNHYTQKSLSLSPGK
VL: not shown
Binder B1 has a Kd of 0.15 nM.

B2: humanized MAb B2 (antibody)
VH: EVQLLEQSGSEVKKPGASVKVSCKASGYPFTDYAMSWVRQAPGQGLEYMGWIFTNSGNPTYAPGFAGRFVFSLDISVNTAYLHIDSLKPEDTAVYYCARGIVTPAASGDYFDSWGQGTLVTVSSASTKGPSVFPLAPSSKSTSGGTAALGCLVKDYFPEPVTVSWNSGALTSGVHTFPAVLQSSGLYSLSSVVTVPSSSLGTQTYICNVDHKPSNTKVDKKVEPKSCDKTHTCPPCPAPPVEGGPSVFLFPPKPKDTLMISRTPEVTCVVVDVSHEDPEVKFNWYVDGVEVHNAKTKPREEQYNSTYRVVSVLTVLHQDWLNGKEYKCKVSNKALPAPIEKTISKAKGQPREPQVYTLPPSRDELTKNQVSLTCLVKGFYPSDIAVEWESNGQPENNYKTTPPVLDSDGSFFLYSKLTVDKSRWQQGNVFSCSVMHEALHNHYTQKSLSLSPGK
VL: ELVLTQSPSSLSASIGDRVTITCRASQHISSWLAWYQQKPGKAPKPLIYAASSLKSGVPSRFSGSGSGTDFTLTISGLQPEDFATYYCQQYENSPVTFGGGTKVEIKRTVAAPSVFIFPPSDEQLKSGTASVVCLLNNFYPREAKVQWKVDNALQSGNSQESVTEQDSKDNTYSLSSTLTLSKADYEKHKVYACEVTHQGLSSPVTKSFN
For B2, the Kd was 0.08 nM.
